According to article PMC11667226 (Theranostics, 2025):
Where two headings read alike, the source gives them in different places. Non-standard residues stand in square brackets, D forms with d. Residues, ends and D or L forms follow the SMILES beside them. *: point of attachment. X1 = CC1(C)C(=CC=CC=CC=CC2=[N+](CCCCCC(=O)*)c3ccc4ccccc4c3C2(C)C)N(CCCCS(=O)(=O)[O-])c2ccc3ccccc3c21; Cha = N[C@@H](CC1CCCCC1)C(=O)O

Details: for TEAE Mild (Grade 1): No. events / TEAE Mild (Grade 1): No. patients (%) / TEAE Moderate (Grade 2): No. events / TEAE Moderate (Grade 2): No. patients (%) / TEAE Severe (Grade 3): No. events / TEAE Severe (Grade 3): No. patients (%): CTCAE v5.0
Experimental: ECGs were taken at baseline, 1 hr ± 15 min, and 44 hrs ± 6 h post-injection. Blood samples (including lever and kidney parameters) were sampled at baseline, 12 hrs ± 4 hrs, and 44 hrs ± 6 hrs post-injection. All laboratory analyses were performed by the Department of Biochemistry at Rigshospitalet. AE assessments were graded according to the National Cancer Institute “Common Terminology Criteria for Adverse Events (CTCAE)” version 5.0. There was no data monitoring committee in this trial.

CC(C)C[C@H](NC(=O)[C@H](Cc1ccc(O)cc1)NC(=O)[C@@H](CCCNC(=N)N)NC(=O)[C@@H](CO)NC(=O)[C@H](Cc1ccccc1)NC(=O)[C@H](CC1CCCCC1)NC(=O)[C@H](CC(=O)O)NC(=O)[C@H](CCC(=O)O)NC(=O)[C@H](CCC(=O)O)NC(=O)CCCCC[N+]1=C(C=CC=CC=CC=C2N(CCCCS(=O)(=O)[O-])c3ccc4ccccc4c3C2(C)C)C(C)(C)c2c1ccc1ccccc21)C(=O)N[C@@H](Cc1c[nH]c2ccccc12)C(=O)N[C@@H](CO)C(=O)O [FG001, ICG-Glu-Glu-AE105] (X1-EED[Cha]F[dS][dR]YLWS-OH; N-terminus and C-terminus assumed)
ECG abnormalities (ECGs at baseline, 1 hr and 44 hrs post-injection): No ECG abnormalities
TEAE ALT increased: No. events (FG001 4 mg i.v., N=5): 0
TEAE ALT increased: No. subjects (%) (FG001 4 mg i.v., N=5): 0 (0.0%)
TEAE AST increased: No. events (FG001 4 mg i.v., N=5): 1
TEAE AST increased: No. subjects (%) (FG001 4 mg i.v., N=5): 1 (20.0%)
TEAE Blood ALP increased: No. events (FG001 4 mg i.v., N=5): 0
TEAE Blood ALP increased: No. subjects (%) (FG001 4 mg i.v., N=5): 0 (0.0%)
TEAE Blood bilirubin increased: No. events (FG001 4 mg i.v., N=5): 1
TEAE Blood bilirubin increased: No. subjects (%) (FG001 4 mg i.v., N=5): 1 (20.0%)
TEAE Blood creatinine increased: No. events (FG001 4 mg i.v., N=5): 0
TEAE Blood creatinine increased: No. subjects (%) (FG001 4 mg i.v., N=5): 0 (0.0%)
TEAE Dysgeusia: No. events (FG001 4 mg i.v., N=5): 0
TEAE Dysgeusia: No. subjects (%) (FG001 4 mg i.v., N=5): 0 (0.0%)
TEAE GGT increased: No. events (FG001 4 mg i.v., N=5): 0
TEAE GGT increased: No. subjects (%) (FG001 4 mg i.v., N=5): 0 (0.0%)
TEAE Hypalbuminaemia: No. events (FG001 4 mg i.v., N=5): 4
TEAE Hypalbuminaemia: No. subjects (%) (FG001 4 mg i.v., N=5): 4 (80.0%)
TEAE Hyperglycaemia: No. events (FG001 4 mg i.v., N=5): 0
TEAE Hyperglycaemia: No. subjects (%) (FG001 4 mg i.v., N=5): 0 (0.0%)
TEAE Hypertension: No. events (FG001 4 mg i.v., N=5): 0
TEAE Hypertension: No. subjects (%) (FG001 4 mg i.v., N=5): 0 (0.0%)
TEAE Hyponatraemia: No. events (FG001 4 mg i.v., N=5): 1
TEAE Hyponatraemia: No. subjects (%) (FG001 4 mg i.v., N=5): 1 (20.0%)
TEAE Hypotension: No. events (FG001 4 mg i.v., N=5): 0
TEAE Hypotension: No. subjects (%) (FG001 4 mg i.v., N=5): 0 (0.0%)
TEAE Hypothermia: No. events (FG001 4 mg i.v., N=5): 0
TEAE Hypothermia: No. subjects (%) (FG001 4 mg i.v., N=5): 0 (0.0%)
TEAE Pneumonia: No. events (FG001 4 mg i.v., N=5): 0
TEAE Pneumonia: No. subjects (%) (FG001 4 mg i.v., N=5): 0 (0.0%)
TEAE SOC General disorders and administration site conditions: No. events (FG001 4 mg i.v., N=5): 0
TEAE SOC General disorders and administration site conditions: No. subjects (%) (FG001 4 mg i.v., N=5): 0 (0.0%)
TEAE SOC Infections and infestations: No. events (FG001 4 mg i.v., N=5): 0
TEAE SOC Infections and infestations: No. subjects (%) (FG001 4 mg i.v., N=5): 0 (0.0%)
TEAE SOC Investigations: No. events (FG001 4 mg i.v., N=5): 2
TEAE SOC Investigations: No. subjects (%) (FG001 4 mg i.v., N=5): 2 (40.0%)
TEAE SOC Metabolism and nutrition disorders: No. events (FG001 4 mg i.v., N=5): 5
TEAE SOC Metabolism and nutrition disorders: No. subjects (%) (FG001 4 mg i.v., N=5): 4 (80.0%)
TEAE SOC Nervous system disorders: No. events (FG001 4 mg i.v., N=5): 0
TEAE SOC Nervous system disorders: No. subjects (%) (FG001 4 mg i.v., N=5): 0 (0.0%)
TEAE SOC Vascular disorders: No. events (FG001 4 mg i.v., N=5): 0
TEAE SOC Vascular disorders: No. subjects (%) (FG001 4 mg i.v., N=5): 0 (0.0%)
FG001 related TEAEs: No. events (FG001 4 mg i.v., n = 5): 0
FG001 related TEAEs: No. patients (%) (FG001 4 mg i.v., n = 5): 0 (0%)
SAEs: No. events (FG001 4 mg i.v., n = 5): 0
SAEs: No. patients (%) (FG001 4 mg i.v., n = 5): 0 (0%)
TEAE: No. events (FG001 4 mg i.v., n = 5): 7
TEAE: No. patients (%) (FG001 4 mg i.v., n = 5): 4 (80%)
TEAE Mild (Grade 1): No. events (FG001 4 mg i.v., n = 5): 5
TEAE Mild (Grade 1): No. patients (%) (FG001 4 mg i.v., n = 5): 2 (40.0%)
TEAE Moderate (Grade 2): No. events (FG001 4 mg i.v., n = 5): 2
TEAE Moderate (Grade 2): No. patients (%) (FG001 4 mg i.v., n = 5): 2 (40.0%)
TEAE Severe (Grade 3): No. events (FG001 4 mg i.v., n = 5): 0
TEAE Severe (Grade 3): No. patients (%) (FG001 4 mg i.v., n = 5): 0 (0.0%)
TEAE ALT increased: No. events (FG001 16 mg i.v., N=8): 0
TEAE ALT increased: No. subjects (%) (FG001 16 mg i.v., N=8): 0 (0.0%)
TEAE AST increased: No. events (FG001 16 mg i.v., N=8): 1
TEAE AST increased: No. subjects (%) (FG001 16 mg i.v., N=8): 1 (12.5%)
TEAE Blood ALP increased: No. events (FG001 16 mg i.v., N=8): 0
TEAE Blood ALP increased: No. subjects (%) (FG001 16 mg i.v., N=8): 0 (0.0%)
TEAE Blood bilirubin increased: No. events (FG001 16 mg i.v., N=8): 2
TEAE Blood bilirubin increased: No. subjects (%) (FG001 16 mg i.v., N=8): 2 (25.0%)
TEAE Blood creatinine increased: No. events (FG001 16 mg i.v., N=8): 1
TEAE Blood creatinine increased: No. subjects (%) (FG001 16 mg i.v., N=8): 1 (12.5%)
TEAE Dysgeusia: No. events (FG001 16 mg i.v., N=8): 1
TEAE Dysgeusia: No. subjects (%) (FG001 16 mg i.v., N=8): 1 (12.5%)
TEAE GGT increased: No. events (FG001 16 mg i.v., N=8): 0
TEAE GGT increased: No. subjects (%) (FG001 16 mg i.v., N=8): 0 (0.0%)
TEAE Hypalbuminaemia: No. events (FG001 16 mg i.v., N=8): 5
TEAE Hypalbuminaemia: No. subjects (%) (FG001 16 mg i.v., N=8): 5 (62.5%)
TEAE Hyperglycaemia: No. events (FG001 16 mg i.v., N=8): 1
TEAE Hyperglycaemia: No. subjects (%) (FG001 16 mg i.v., N=8): 1 (12.5%)
TEAE Hypertension: No. events (FG001 16 mg i.v., N=8): 1
TEAE Hypertension: No. subjects (%) (FG001 16 mg i.v., N=8): 1 (12.5%)
TEAE Hyponatraemia: No. events (FG001 16 mg i.v., N=8): 0
TEAE Hyponatraemia: No. subjects (%) (FG001 16 mg i.v., N=8): 0 (0.0%)
TEAE Hypotension: No. events (FG001 16 mg i.v., N=8): 1
TEAE Hypotension: No. subjects (%) (FG001 16 mg i.v., N=8): 1 (12.5%)
TEAE Hypothermia: No. events (FG001 16 mg i.v., N=8): 1
TEAE Hypothermia: No. subjects (%) (FG001 16 mg i.v., N=8): 1 (12.5%)
TEAE Pneumonia: No. events (FG001 16 mg i.v., N=8): 1
TEAE Pneumonia: No. subjects (%) (FG001 16 mg i.v., N=8): 1 (12.5%)
TEAE SOC General disorders and administration site conditions: No. events (FG001 16 mg i.v., N=8): 1
TEAE SOC General disorders and administration site conditions: No. subjects (%) (FG001 16 mg i.v., N=8): 1 (12.5%)
TEAE SOC Infections and infestations: No. events (FG001 16 mg i.v., N=8): 1
TEAE SOC Investigations: No. events (FG001 16 mg i.v., N=8): 4
TEAE SOC Investigations: No. subjects (%) (FG001 16 mg i.v., N=8): 3 (37.5%)
TEAE SOC Metabolism and nutrition disorders: No. events (FG001 16 mg i.v., N=8): 6
TEAE SOC Metabolism and nutrition disorders: No. subjects (%) (FG001 16 mg i.v., N=8): 5 (62.5%)
TEAE SOC Nervous system disorders: No. events (FG001 16 mg i.v., N=8): 1
TEAE SOC Vascular disorders: No. events (FG001 16 mg i.v., N=8): 2
TEAE SOC Vascular disorders: No. subjects (%) (FG001 16 mg i.v., N=8): 2 (25.0%)
FG001 related TEAEs: No. events (FG001 16 mg i.v., n = 8): 0
FG001 related TEAEs: No. patients (%) (FG001 16 mg i.v., n = 8): 0 (0%)
SAEs: No. events (FG001 16 mg i.v., n = 8): 0
SAEs: No. patients (%) (FG001 16 mg i.v., n = 8): 0 (0%)
TEAE: No. events (FG001 16 mg i.v., n = 8): 15
TEAE: No. patients (%) (FG001 16 mg i.v., n = 8): 8 (100%)
TEAE Mild (Grade 1): No. events (FG001 16 mg i.v., n = 8): 11
TEAE Mild (Grade 1): No. patients (%) (FG001 16 mg i.v., n = 8): 4 (50.0%)
TEAE Moderate (Grade 2): No. events (FG001 16 mg i.v., n = 8): 4
TEAE Moderate (Grade 2): No. patients (%) (FG001 16 mg i.v., n = 8): 4 (50.0%)
TEAE Severe (Grade 3): No. events (FG001 16 mg i.v., n = 8): 0
TEAE Severe (Grade 3): No. patients (%) (FG001 16 mg i.v., n = 8): 0 (0.0%)
TEAE ALT increased: No. events (FG001 36 mg i.v., N=4): 1
TEAE ALT increased: No. subjects (%) (FG001 36 mg i.v., N=4): 1 (25.0%)
TEAE AST increased: No. events (FG001 36 mg i.v., N=4): 1
TEAE AST increased: No. subjects (%) (FG001 36 mg i.v., N=4): 1 (25.0%)
TEAE Blood ALP increased: No. events (FG001 36 mg i.v., N=4): 1
TEAE Blood ALP increased: No. subjects (%) (FG001 36 mg i.v., N=4): 1 (25.0%)
